# According to the DeepSol protein solubility set:
# Experiment: soluble on expression in E. coli; label from the status in PepcDB or PDB records
row,Sequence,soluble on expression in E. coli
1,MGSDKIHHHHHHMLPLVKLIRGQDNTIVEADLVELWQKHVDDYANKWKEQLKLHGQSDKFWDWEFKLEFIINRQANREGFAIEYEDETQGLMLIETQMHGSRLVEGKRLVYIDGIATAPWNRAYIQRPPKLKGVGTAFLAFARTRSLELGYEGRVGLHSLPGVEEFYDNQGMIDVGEDEDYDDLVYFEYGVFRSPV,not soluble
2,MGSDKIHHHHHHMLPNRLLANRAYSTAINRFRVVEVGARDGLQAEKKFVPTEIKVELIDRLSECGFQTVETTSFVSPKWVPQLADHNEIVKKHRRFEGVSYPVLVPNAAGLKNALATGVVEEIAVFGAASDAFSLKNVNSNVEDSLKKLMEVTKIALENNIRVRGYVSVVVGCPYQGAVQPEMVARVAEKLLESGCYEVSLGDTIGVGTVKTVSKMLDTVLKSVPAEKLAVHFHDTYGQALANVLISIEKGIRSADSSIAGLGGCPYAKGATGNLATEDLLYFLKGNGFETGVNLDKVVETAKWFNEAAGYDKWSRVGAAMMAKKSKSCC,not soluble
3,MGSDKIHHHHHHMLPQSFSYKVIRHNMITVAHLINNIVQSGPVIVMRDIIRHMDRDKFHPIVICLRHEEKEDPIVKELRAIDVKCIYLNYSLLSLELQTGRIARKVLSVLRNEKAHILHSHGYHPDLIASHLSRNITSLSTLHNISKDDFTFLKGNLLGSYMNFRYLRSLSKIGHYVAISRAVADYYASHVNKAKERIRIIHNGVDLSFFQIPDEDHQKQLRHRLGLPVSGKIFLVVGRLFSRKDPLIIIRAFKFLLESQKLSGDFYLFFLGDGPLSDACQKEIGDKTHNIRLLGFQKNVHEYMMAADYAITASHSEGFGLNYLEATACGKPVVATDLPPFREICGTGFQDNELFFSVGNQKELEDCILKSLGHTFNPQKVSDIRHHFSAETMSVQYQNYYTELSAPLK,not soluble
4,MGSDKIHHHHHHMLQFQPPGFGHKLIHTSLGAMVYYTQTNTPWAFADTEDLPPLLFLHNFGGGASAYEWSKVYPAFASNYHILAPDLIGWGESAHPVRDYKIRDYLSTIAEFIIETCRQPVTVVASSLTAAFAIRLAIVQPNLFKALFLVSPSGFDDFGQGAGRRLPLSVINTPLLDNFIYMLGAENEIAVRNFLQSFLFAKSERVSQEIVDAYLTSAQQPNAKFSALAFLRGDLYFDLSLYIQQLTIPTVMFWGEKAQFTNIKLGQRLANLNQRAIQDFYAIADAGILPHLEIPEVVIGLLQRYLR,not soluble
5,MGSDKIHHHHHHMLQNRERTYSLPQPFYSDDRLFEIDMQEIFHKEWLIAGMTCEIPTKGNFLTLQIGKNPILVVRGPDGAVNAFHNVCRHRGSRLCTAEKGKVAKLVCHYHQWTYELDGRLLYAGTEMGDDFDMKQFGLKPVHVKTAGGYIFISLAENPPAIDEFLATLKHYMEPYDMENTKVAVQTTLMEKANWKLVLENNRECYHCGGAHPELLKTLLEWDDVTDPRADQAFKDHVAASAAAWDAEKIPYAHASFGLRNRIVRMPLLKGTVSMTMDGKVGCKKLMGRIQNPELGSMRILHLPHSWNHCMGDHIIVFTVWPISAQETMVSTKWIVHKDAVEGVDYDVARMRQVWDATNDQDRRLAEENQRGINSTAYQPGPYSKTYEFGVVNFIDWYSARMLENLGAEPAPYLKGVAVNHE,not soluble
6,MGSDKIHHHHHHMLSGSTQLMPSTVGLASAHLQYSASFFPTTAVYSLLFPDKSIIIGTVALGYAQTRPQDLPVTHILTKGNRTFKLSIASTPEQLEKGLKFRSSLNGDSGMLFNLGGEIYNVPFWMYKVNFPLDIFYLKDNVVTTAVYNAKPCYKNPCPIYKGKVANQVLELATGTANIKVGDRLNIQPLSSAKE,not soluble
7,MGSDKIHHHHHHMLSMKNIVGKPQTIKKVNEDLIKNIIKNEGPITKPEISSITELSLATVNKIVEQLALKNEVKVSGLSESTGGRRAQLFEINANLEHIIALYYYRNCCIGVVANLLGEIIYQEEFNIRMDTYENVNQDTFFVIDTLIKKEKGNNIRAIGIGVPGVVKKGVVKNIPTIKSWEGINLENLIKSKYNTKVFIENDTNITTIGIYQKQYKDKYKNMALMYLEDGIGSGIVINGELYLGSTNFAGELSYLNIEFGKYNSNNLNLEDYIMSLRKRYLESKDNKFKKEILSIISNFIRTLVCVLNPQAMIIQCSILTKSDMEFIEKDVSNNVGEENFPKLIKVESLREGSINGVISMCLKETDYQYSLSNKKGGY,not soluble
8,MGSDKIHHHHHHMLTGVEVRHFKSWRASEWIACAPITMFFGSNSSGKTSLLQLLLLLKQTTESSDRQQVLNLGDTHSPVDAGTFPDLLHRHEQTQSLFWRIAWQLPPDLTIALPGRKNGDHLPARELAFQARIGWHQHSDSTPNLQAQASHGRAVVEEMAYQLAGYTLGMRLRDRVKQEYELYSDPAGLFSRPSRKSPRLPSPVKCYGFPDEVQKYYKHVSFLTDLEFALEQLCRRMTYLGPLREYPRRQYTWSGTPPTGVGYRGERVIEALLASRLSSDVASGTDSDQPSALETRVAEWLKTMELIADFAVRAVAPGASLFQVWVRRAQQAPEVLMTDVGFGISQMLPVITLCYYVPKGSIVILEHPEIHLHPRAQADLADVLIDAVKTRGVQIIVESHSEHLLRRLQRRIAEDVLPSDQAALYVCTTDAEGVSHIQRLHLDPYGNITNWPKDFFGDEMGDLLAMSEAAMKRQLGQV,not soluble
9,MGSDKIHHHHHHMLTSSWIKQLPLTAITQVTPVGGGDVNQAYRIDTATKPYFLLVQPGYPADFYAGEIAGLKAFDEAQILAPRVIANGQIEGDGFLLLSFLTSGNGSQRDLGRLVAHLHQHHEPNGRFGFDYPYAGTSVSFTNTWTDSWADLFIHQRLDKLAAHLLKKELWQADDEATFQQVRTIISKTLAHHHSDASLLHGDLWGGNYMFTADGQPALIDPAAVYGDRELDIGVTTVFGGFTQDFYTGYQEVYPLDAGYHFRLDFYRLYYLMVHLDKFGMGYAGSVAAVMNQILDHGLTE,not soluble
10,MGSDKIHHHHHHMLTTVKEKIEALNSEVSYRVKLWQYAPNLPKVESRDRLIVDTLKSEGVYITTLQELGLPSTAQLLKASHTLLPGMGQGSYAESAQNPPEIYTVTHIPDFYNWGSESRLLNILENYIGLPVAYHGVQIRKDFVNANQFSTMLWHRDSEDRRIVKIIIYLSDVEEKHGPFEYVPASFTSIDSLNFYRLYYKIHKSGINDEALNKIVPKSAWKSCTGPAGSVIIADTQRLLHHGTVRTEERSTLFYAYTANPAKRPGLCTQYWDDTFPKPNYS,not soluble
11,MGSDKIHHHHHHMLVVPAIDLFRGKVARMIKGRKENTIFYEKDPVELVEKLIEEGFTLIHVVDLSNAIENSGENLPVLEKLSEFAEHIQIGGGIRSLDYAEKLRKLGYRRQIVSSKVLEDPSFLKSLREIDVEPVFSLDTRGGRVAFKGWLAEEEIDPVSLLKRLKEYGLEEIVHTEIEKDGTLQEHDFSLTKKIAIEAEVKVLAAGGISSENSLKTAQKVHTETNGLLKGVIVGRAFLEGILTVEVMKRYAR,not soluble
12,MGSDKIHHHHHHMMDYFSMTSHQDTKPSAQTSQWPVPTDSVRYVIPEPIVRQLAHHPLTRELYPLAFGHYRRAAGHHMHREHHRDNLLIYCTDGKAFLNVAGEPYTVTAGDLLLLPAGVSHRYTADPDNPWTIHWVHYTGPLAEDFGQYMGFDDSTRIRHLGRQPRLLVDFNGLLSVRQTGFRARGLIHASNRLRQLLAAVPINADETSQARQAELDSLHSFMREHLEERLTLNQLAELSGLSPAHFATRYREQTGTSPIQHFLHLKVERACELLDTTSQSFADISRQLGYDDAYYFSRLFKKVMGKSPTDYRHTARH,not soluble
13,MGSDKIHHHHHHMMGKAALMDAIAGTNRGLLATEAQKQAILAAIANLEDFNPTPRPVEAGNLLDGNWRLLYTTSKALLNLDRLPFCKLGQIYQCIRVETTSVYNIAEIYGLPYLEGLVSVAAKFEPVSGRRVQVKFERSIIGLQRLIEYNSPVTFIQQIEAGKKFAGIDFAIKSDKQQGWLDITYIDNDLRIGRGNEGSVFILSKT,not soluble
14,MGSDKIHHHHHHMMKIPKKIHQIYTKGIHDLPEEILVSVGKLKDLNPGWEYFFYDEKSIIGYIHKHYGKEMLNIYLSINPKYGVAKADLFRYLLIYIEGGVYLDIKSSCSIPLDQVIKDDCEILLCSWDNKECGCDRNMGIHKELGFLKCGEYQQWNIISASGSPYIKSAIDEVIHRLKTYKPWIYGVGMKGVLNTTGPVPFSVGIERINKTEFFHHEENYRNIGLKYRNVTEETIRKLNKNHYSKLKDSIVTLEGKDKLYYKLWLLFFYPLQRLKKNIINESKFVIRKMKRISRKTSQ,not soluble
15,MGSDKIHHHHHHMMRVEHLAYQFSRNGQPFFKDVSFQLKSPGVNFLIGQNGAGKTTLADIITGLRPAQGELDLPKAAIYLNQQLPLLSSIRVRDVAQLVLGIEHGRLRLTTEQLQQLIDTQAYQFLAPLWDQHYGQLSGGQRKLVQLLLFLQVDRELIVLDEPTAAVDRENVQLLFQVMQAHPERTYLMITHDVRDLHAFTDYQVLWLNDRQVTTLSKRTFEAASAQADFVALFKTQ,not soluble
16,MGSDKIHHHHHHMMSDEKNLGVSQKLVSPSRSTSSCSSKQGSRQDSWEVVEGLRGEMNYTQEPPVQKGFLLKKRKWPLKGWHKRFFYLDKGILKYAKSQTDIEREKLHGCIDVGLSVMSVKKSSKCIDLDTEEHIYHLKVKSEEVFDEWVSKLRHHRMYRQNEIAMFPHEVNHFFSGSTITDSSSGVFDSISSRKRSSISKQNLFQTGSNVSFSCGGETRVPLWLQSSEDMEKCSKDLAHCHAYLVEMSQLLQSMDVLHRTYSAPAINAIQGGSFESPKKEKRSHRRWRSRAIGKDAKGTLQVPKPFSGPVRLHSSNPNLSTLDFGEEKNYSDGSETSSEFSKMQEDLCHIAHKVYFTLRSAFNIMSAEREKLKQLMEQDASSSPSAQVIGLKNALSSALAQNTDLKERLRRIHAESLLLDSPAVAKSGDNLAEENSRDENRALVHQLSNESRLSITDSLSEFFDAQEVLLSPSSSENEISDDDSYVSDISDNLSLDNLSNDLDNERQTLGPVLDSGREAKSRRRTCLPAPCPSSSNISLWNILRNNIGKDLSKVAMPVELNEPLNTLQRLCEELEYSELLDKAAQIPSPLERMVYVAAFAISAYASSYYRAGSKPFNPVLGETYECIREDKGFQFFSEQVSHHPPISACHAESRNFVFWQDVRWKNKFWGKSMEIVPIGTTHVTLPVFGDHFEWNKVTSCIHNILSGQRWIEHYGEIVIKNLHDDSCYCKVNFIKAKYWSTNAHEIEGTVFDRSGKAVHRLFGKWHESIYCGGGSSSACVWRANPMPKGYEQYYSFTQFALELNEMDPSSKSLLPPTDTRFRPDQRFLEEGNLEEAEIQKQRIEQLQRERRRVLEENHVEHQPRFFRKSDDDSWVSNGTYLELRKDLGFSKLDHPVLW,not soluble
17,MGSDKIHHHHHHMMTQLSAPTLTKDPLTSQDRQIIATIVNQSDYSKECKPEDVVTIWINSDDIVWVKMTHGYARYHKQSFKRAVAEVKASLSAPVERNHKEEKELKQASEKIGLLGDCDWLSLSVQYHSDKVTGHAACYISHKARILTPLAEWDFTIPKWNMPAAICPDCDGHGCGNCGYRGTRAEDLCTPVDGYRLTYVGKTDIQTAHNVYLDGVFLGILFKVRNPDEIWENDPKTYYWQGSNGMKYWSLKEAVESFTQDVVTNKVPQVRQELAVA,not soluble
18,MGSDKIHHHHHHMMYIGLPQWQHPAWSRLGLNDLADYSRYFSCVEGNTTFYALPSREIVGRWRDMTHDNFRFCFKFPSTISHKAALQNCDSDVSLFYQCLEPIEHRIGQLWLQLPATFGPVLLPVLWRFLDALPQGFSYGVEVRHPLFFTKGDEERALNQGLQQRGINRVILKRHI,not soluble
19,MGSDKIHHHHHHMNAPAHDNGRLALMLNELRLPTIGRLWPEFAERSDKEGWPATRLLGALLEHELAERAKRRIERHRTESHLDPTKTLATFDFGMVPMVSKAHVTALATGESWLEKGATILLFGPPGAGKSHLGSAIGHALIDAGYRVLFTRTSELVQKLQAARQSLQLPSALAKLDRFDLIILDDLSYARKDQAETSVLFELIAERYERKSLLITANQPFSGWNDVFPDPGMTVAAIDRLVHHSTIFELNVESYRRRKASDKQSARRRQLPDDNYEGGATIMN,not soluble
